# Target: ABD-fused VP1 (ABD-VP1) protein vaccine (not stated | Coxsackievirus B3) (UniProt P03313)
# Experiment: ELISA; sandwich ELISA on serum of mice injected subcutaneously with ABD-VP1 or VP1: plates pre-coated with anti-VP1 antibody, detection with anti-albumin antibody and HRP-labeled secondary antibody, absorbance at 450 nm; the complex formed in vivo
substance,measurement,value
mouse serum albumin (MSA) (from UniProt P07724 25-608) (natural protein),OD450,0.7 OD450
